According to PMC8031663, “Caveolin‐1‐driven membrane remodelling regulates hnRNPK‐mediated exosomal microRNA sorting in cancer”:

Target: hnRNPK (6xHis-GFP fusion) (Homo sapiens, UniProt P61978 1-463)
Assay: MST; Kd plotted in Fig 4B, value not in text; MST: 50 mM HEPES, 0.3 M KCl, pH 7.4, 40 nM RNA, protein dilution from 150 uM, temperature not stated; pull-down: 10 mM Tris-Cl pH 7.5, 20 mM KCl, 1.5 mM MgCl2
Conditions: protein: recombinant; tags: N-terminal 6xHis-GFP, TEV site; label: 5' 6-FAM; single strand

B1: motif_mimic (miR-148a-3p) (ssRNA)
RNA: UCAGUGCACUACAGAACUUUGU
binding result: binds
